The target of series [1] is T1, Lys(Dnp)-ATNATAKPRIVGG-Lys(Abz).
T1 chain: KATNATAKPRIVGGK

Series [2] addresses T2, Lys(Dnp)-ATNATFGPRIVGG-Lys(Abz).
T2 chain: KATNATFGPRIVGGK

The target in series [3] is T3, Lys(Dnp)-ATNATVWPRIVGG-Lys(Abz).
T3 chain: KATNATVWPRIVGGK

Series [4] addresses T4, Lys(Dnp)-ATNATLQPRIVGG-Lys(Abz).
T4 chain: KATNATLQPRIVGGK

Series [5] concerns the target T5, Lys(Dnp)-ATNATMVPRIVGG-Lys(Abz).
T5 chain: KATNATMVPRIVGGK

Series [6] deals with T6, Lys(Dnp)-ATNATMYPRIVGG-Lys(Abz).
T6 chain: KATNATMYPRIVGGK

The target in series [7] is T7, Lys(Dnp)-ATNATVKPRIVGG-Lys(Abz).
T7 chain: KATNATVKPRIVGGK

For series [8], the target named is T8, Lys(Dnp)-ATNATIYPRIVGG-Lys(Abz).
T8 chain: KATNATIYPRIVGGK

The target of series [9] is T9, Lys(Dnp)-ATNATWPPRIVGG-Lys(Abz).
T9 chain: KATNATWPPRIVGGK

Series [10] deals with T10, Lys(Dnp)-ATNATWAPRIVGG-Lys(Abz).
T10 chain: KATNATWAPRIVGGK

For series [11], the target named is T11, Lys(Dnp)-ATNATLWPRIVGG-Lys(Abz).
T11 chain: KATNATLWPRIVGGK

Series [12] has as its target T12, Lys(Dnp)-ATNATDRPRIVGG-Lys(Abz).
T12 chain: KATNATDRPRIVGGK

Series [13] has as its target T13, Lys(Dnp)-ATNATFAPRIVGG-Lys(Abz).
T13 chain: KATNATFAPRIVGGK

In series [14] the target is T14, Lys(Dnp)-ATNATQSPRIVGG-Lys(Abz).
T14 chain: KATNATQSPRIVGGK

Series [15] deals with T15, Lys(Dnp)-ATNATTLPRIVGG-Lys(Abz).
T15 chain: KATNATTLPRIVGGK

In series [16] the target is T16, Lys(Dnp)-ATNATRHPRIVGG-Lys(Abz).
T16 chain: KATNATRHPRIVGGK

In series [17] the target is T17, Lys(Dnp)-ATNATYRPRIVGG-Lys(Abz).
T17 chain: KATNATYRPRIVGGK

In series [18] the target is T18, Lys(Dnp)-ATNATTKPRIVGG-Lys(Abz).
T18 chain: KATNATTKPRIVGGK

In series [19] the target is T19, Lys(Dnp)-ATNATRFPRIVGG-Lys(Abz).
T19 chain: KATNATRFPRIVGGK

The target in series [20] is T20, Lys(Dnp)-ATNATEIPRIVGG-Lys(Abz).
T20 chain: KATNATEIPRIVGGK

In series [21] the target is T21, Lys(Dnp)-ATNATALPRIVGG-Lys(Abz).
T21 chain: KATNATALPRIVGGK

The target of series [22] is T22, Lys(Dnp)-ATNATKMPRIVGG-Lys(Abz).
T22 chain: KATNATKMPRIVGGK

Series [23] has as its target T23, Lys(Dnp)-ATNATHMPRIVGG-Lys(Abz).
T23 chain: KATNATHMPRIVGGK

Series [24] addresses T24, Lys(Dnp)-ATNATNRPRIVGG-Lys(Abz).
T24 chain: KATNATNRPRIVGGK

Series [25] addresses T25, Lys(Dnp)-ATNATYFPRIVGG-Lys(Abz).
T25 chain: KATNATYFPRIVGGK

In series [26] the target is T26, Lys(Dnp)-ATNATKYPRIVGG-Lys(Abz).
T26 chain: KATNATKYPRIVGGK

Series [27] deals with T27, Lys(Dnp)-ATNATHLPRIVGG-Lys(Abz).
T27 chain: KATNATHLPRIVGGK

In series [28] the target is T28, Lys(Dnp)-ATNATKWPRIVGG-Lys(Abz).
T28 chain: KATNATKWPRIVGGK

The target in series [29] is T29, Lys(Dnp)-ATNATNNPRIVGG-Lys(Abz).
T29 chain: KATNATNNPRIVGGK

The target of series [30] is T30, Lys(Dnp)-ATNATDMPRIVGG-Lys(Abz).
T30 chain: KATNATDMPRIVGGK

For series [31], the target named is T31, Lys(Dnp)-ATNATDQPRIVGG-Lys(Abz).
T31 chain: KATNATDQPRIVGGK

Series [32] has as its target T32, Lys(Dnp)-ATNATSLPRIVGG-Lys(Abz).
T32 chain: KATNATSLPRIVGGK

The target of series [33] is T33, Lys(Dnp)-ATNATRGPRIVGG-Lys(Abz).
T33 chain: KATNATRGPRIVGGK

For series [34], the target named is T34, Lys(Dnp)-ATNATHDPRIVGG-Lys(Abz).
T34 chain: KATNATHDPRIVGGK

For series [35], the target named is T35, Lys(Dnp)-ATNATLLPRIVGG-Lys(Abz).
T35 chain: KATNATLLPRIVGGK

The target in series [36] is T36, Lys(Dnp)-ATNATMPPRIVGG-Lys(Abz).
T36 chain: KATNATMPPRIVGGK

The target of series [37] is T37, Lys(Dnp)-ATNATRRPRIVGG-Lys(Abz).
T37 chain: KATNATRRPRIVGGK

Series [38] deals with T38, Lys(Dnp)-ATNATAMPRIVGG-Lys(Abz).
T38 chain: KATNATAMPRIVGGK

For series [39], the target named is T39, Lys(Dnp)-ATNATDVPRIVGG-Lys(Abz).
T39 chain: KATNATDVPRIVGGK

In series [40] the target is T40, Lys(Dnp)-ATNATVEPRIVGG-Lys(Abz).
T40 chain: KATNATVEPRIVGGK

The target of series [41] is T41, Lys(Dnp)-ATNATIPPRIVGG-Lys(Abz).
T41 chain: KATNATIPPRIVGGK

The source of these data is patent publication US20160024487.

B1: Human plasma purified Factor Xa (protein)
chain 1: ANSFLEEMKKGHLERECMEETCSYEEAREVFEDSDKTNEFWNKYKDGDQCETSPCQNQGKCKDGLGEYTCTCLEGFEGKNCELFTRKLCSLDNGDCDQFCHEEQNSVVCSCARGYTLADNGKACIPTGPYPCGKQTLER
chain 2: IVGGQECKDGECPWQALLINEENEGFCGGTILSEFYILTAAHCLYQAKRFKVRVGDRNTEQEEGGEAVHEVEVVIKHNRFTKETYDFDIAVLRLKTPITFRMNVAPACLPERDWAESTLMTQKTGIVSGFGRTHEKGRQSTRLKMLEVPYVDRNSCKLSSSFIITQNMFCAGYDTKQEDACQGDSGGPHVTRFKDTYFVTGIVSWGEGCARKGKYGIYTKVTAFLKWIDRSMKTRGLPKAKSHAPEVITSSPLK
Consider B1, for which the FXa kcat/KM in series [1] came to 30 M⁻¹ s⁻¹; in series [2], 100 M⁻¹ s⁻¹; in series [3], 190 M⁻¹ s⁻¹; in series [4], 1200 M⁻¹ s⁻¹; in series [5], 100 M⁻¹ s⁻¹; in [6] it was 110 M⁻¹ s⁻¹. The FXa kcat/KM stood at 38 M⁻¹ s⁻¹ in series [7]; 220 M⁻¹ s⁻¹ in series [8]; 17 M⁻¹ s⁻¹ in [9]; 42 M⁻¹ s⁻¹ in series [10]; 1000 M⁻¹ s⁻¹ in series [11].

B2: Human plasma purified Factor Xa (Molecular Innovations, Inc) (protein)
chain 1: B1 chain 1
chain 2: B1 chain 2
Turning to B2, the FXa kcat/KM turned out to be 190 M⁻¹ s⁻¹ in series [12]; 130 M⁻¹ s⁻¹ in series [13]; 950 M⁻¹ s⁻¹ in series [14]; 140 M⁻¹ s⁻¹ in series [15]; 2600 M⁻¹ s⁻¹ in series [16]; 610 M⁻¹ s⁻¹ in [17]. The FXa kcat/KM in series [18] was determined as 14 M⁻¹ s⁻¹; in [19] it was 730 M⁻¹ s⁻¹; in [20] it was 55 M⁻¹ s⁻¹; in series [21], 300 M⁻¹ s⁻¹; in series [22], 140 M⁻¹ s⁻¹; in series [23] it was 270 M⁻¹ s⁻¹. The FXa kcat/KM in [24] was determined as 220 M⁻¹ s⁻¹; in series [25], 34 M⁻¹ s⁻¹; in [26], 38 M⁻¹ s⁻¹; in [27], 140 M⁻¹ s⁻¹; in series [28], 130 M⁻¹ s⁻¹; in [29], 15 M⁻¹ s⁻¹. Further, the FXa kcat/KM in [30] was 11 M⁻¹ s⁻¹; in [31], 2.2 M⁻¹ s⁻¹; in series [32], 82 M⁻¹ s⁻¹; in [33] it was 680 M⁻¹ s⁻¹; in series [34], 86 M⁻¹ s⁻¹; in series [35], 590 M⁻¹ s⁻¹. The FXa kcat/KM in [36] came to 4.1 M⁻¹ s⁻¹; in series [37] it was 900 M⁻¹ s⁻¹; in series [38], 460 M⁻¹ s⁻¹; in series [39], 15 M⁻¹ s⁻¹; in [40], 110 M⁻¹ s⁻¹; in [41], 8.5 M⁻¹ s⁻¹.
